The subject of data set [1] is L540 human Hodgkin's disease tumors. In words: Anti-tumor effects (tumor growth), L540 tumors. In kind it is in vivo, mouse. The settings on record: day 14; FIG. 19. How it is done:
(§1) Accepted animal models were used to determine whether administration of tTF or immunoglobulin-tTF conjugates suppressed the growth of solid tumors in mice. The tumor test systems were: i) L540 human Hodgkin's disease tumors growing in SCID mice; ii) C1300 Muγ (interferon-secreting) neuroblastoma growing in nu/nu mice; iii) H460 human non-small cell lung carcinoma growing in nu/nu mice. To establish solid tumors, 1.5×10^7 tumor cells were injected subcutaneously into the right anterior flank of SCID or BALB/c nu/nu mice (Charles River Labs., Wilmingham, Mass.). When the tumors had grown to various diameters, mice were assigned to different experimental groups, each containing 4 to 9 mice.
(§2) Mice then received an intravenous injection of 0.5 mg/kg of tTF alone or linked to bispecific antibody. Other mice received equivalent quantities of bispecific antibody alone. The injections were performed over ˜45 seconds into one of the tail veins, followed by 200 μl of saline. The infusions were repeated six days later. Perpendicular tumor diameters were measured at regular intervals and tumor volumes were calculated.

Data set [2] deals with citrated mouse plasma. In words: In vitro coagulation assay: tTF constructs localized on A20 lymphoma cells via bispecific antibody B21-2/10H10. In kind it is cell-based. The settings on record: for time in which plasma coagulated: FIG. 20; for coagulation time: FIG. 4B. How it is done:
This assay was used to verify that tTF, various derivatives and mutants thereof, and immunoglobulin-tTF conjugates acquire coagulation inducing activity once localized at a cell surface. A20 lymphoma cells (I-A^d positive) (2×10^6 cells/ml, 50 μl) were incubated for 1 h at room temperature with a bispecific antibody (50 μg/ml, 25 μl) consisting of a Fab′ arm of the B21-2 antibody directed against I-A^d linked to a Fab′ arm of the 10H10 antibody directed against a non-inhibitory epitope on tTF. The cells were washed at room temperature and varying concentrations of tTF, derivatives or mutants thereof, or immunoglobulin-tTF conjugates were added for 1 hour at room temperature. The bispecific antibody captures the tTF or tTF linked to immunoglobulin, bringing it into close approximation to the cell surface, where coagulation can proceed.
The cells were washed again at room temperature, resuspended in 75 μl of PBS and warmed to 37° C. […] The time for the first fibrin strands to form was recorded. Clotting time was plotted against tTF concentration and curves compared with standard curves prepared using standard tTF219 preparations.

In data set [3] the test system is C1300 Muγ mouse neuroblastoma. In words: In vivo tumor thrombosis, C1300 Muγ tumors. The source says:
(§3) Tumor test systems were of four types: i) 3LL mouse lung carcinoma growing subcutaneously in C57BL/6 mice; ii) C1300 mouse neuroblastoma growing subcutaneously in BALB/c nu/nu mice; iii) HT29 human colorectal carcinoma growing subcutaneously in BALB/c nu/nu mice; and iv) C1300 Muγ mouse neuroblastoma growing subcutaneously in BALB/c nu/nu mice. The C1300 Muγ tumor is an interferon-γ secreting transfectant derived from the C1300 tumor (Watanabe et al., 1989).
Further, the C1300 (Muγ) tumor model of (Burrows, et al., 1992; incorporated herein by reference) was employed and modified as follows: (i) antibody B21-2 was used to target I-A^d; (ii) C1300(Muγ) tumor cells, a subline of C1300(Muγ) 12 tumor cells, that grew continuously in BALB/c nu/nu mice were used; and (iii) tetracycline was […] the mice's drinking water to prevent gut bacteria from inducing I-A^d on the gastrointestinal epithelium.
(§4) To establish tumors, 10^6 to 1.5×10^7 tumor cells were injected subcutaneously into the right anterior flank of the mice. When tumors had grown to various sizes, mice were randomly assigned to different study groups. Mice then received an intravenous injection of 0.5 mg/kg of tTF alone or linked to IgG, Fab′, or bispecific antibody. Other mice received equivalent quantities IgG, Fab′ or bispecific antibody alone. The injections were performed slowly into one of the tail veins over approximately 45 seconds, usually followed by 200 μl of saline.
(§5) Twenty-four hours after being injected with tTF or immunoglobulin-tTF conjugates, the mice were anesthetized with metophane and were exsanguinated by perfusion with heparinized saline. Tumors and normal tissues were excised and immediately fixed in 3% (v/v) formalin. Paraffin sections were cut and stained with hematoxylin and eosin. Blood vessels having open lumens containing erythrocytes and blood vessels containing thrombi were counted. Paraffin sections were cut and stained with hematoxylin and eosin or with Martius Scarlet Blue (MSB) trichrome for the detection of fibrin.

Data set [4] concerns C1300 mouse neuroblastoma. The experiment in a line: In vivo tumor thrombosis, C1300 tumors.
From the text: as §3, §4
(§6) Twenty-four hours after being injected with tTF or immunoglobulin-tTF conjugates, the mice were anesthetized with metophane and were exsanguinated by perfusion with heparinized saline. Tumors and normal tissues were excised and immediately fixed in 3% (v/v) formalin. […] Blood vessels having open lumens containing erythrocytes and blood vessels containing thrombi were counted. […]

For data set [5], the system named is 3LL mouse lung carcinoma. In words: In vivo tumor thrombosis, 3LL tumors. The settings on record: C57BL/6 mice, large (>800 mm^3) tumors; FIG. 11.
From the text: as §3, §4, §6

In data set [6] the test system is C1300 Muγ (interferon-secreting) neuroblastoma. The experiment in a line: Anti-tumor effects (tumor growth), C1300 Muγ tumors. It counts as in vivo, mouse. How it is done: as §1, §2
Data set [7] concerns H460 human non-small cell lung carcinoma. The experiment in a line: Anti-tumor effects (tumor growth), H460 tumors. In kind it is in vivo, mouse. The settings on record: FIG. 13. How it is done: as §1, §2
Data set [8] concerns HT29 human colorectal carcinomas. In words: Anti-tumor effects (tumor growth), HT29 tumors. The settings on record: nu/nu mice, large (1200 mm^3) tumors, intravenous; FIG. 14. It counts as in vivo, mouse. The protocol: Anti-tumor effects were also observed in mice bearing HT29 human colorectal carcinomas (FIG. 14). Nu/nu mice bearing large (1200 mm^3) tumors on their flanks were injected intravenously with tTF219 or PBS (control), and growth of the tumors was monitored each day for 10 days. The tumors in the tTF219 treated mice discontinued growth for about 7 days after treatment, whereas the tumors in mice treated with PBS continued to grow unchecked.

The test system of data set [9] is HT29 (human colorectal carcinoma) xenograft. In words: Tumor necrosis in HT29 xenografts 24 hours after treatment (Example XII). It counts as in vivo, mouse. The settings on record: 24 hours after intravenous injection; tumors 0.5 to 1.0 cm^3; FIG. 23. How it is done:
For these studies, the inventors chose the HT29 (human colorectal carcinoma) xenograft tumor model. HT29 cells (10^7 cells/mouse) were subcutaneously injected into BALB/c nu/nu mice. Tumor dimensions were monitored and animals were treated when the tumor size was between 0.5 and 1.0 cm^3.
Animals were sacrificed 24 hours after treatment, perfused with saline and heparin and exsanguinated. Tumors and organs were collected, formalin fixed and histological sections were prepared. The average area of necrosis in sections of the tumors was quantified and calculated as a percentage of the total area of tumor on the section.

A short description of data set [10]: Toxicity and histology of normal organs in treated tumor-bearing mice. The settings on record: 30 minutes or 24 hours after administration. It counts as in vivo, mouse.
From the text: as §5

Data set [11] has as its system factor X. The settings on record: appropriate phospholipid membrane environment; Ruf, et al., 1991b; cited from earlier work.

Take `COc1cc([C@@H]2c3cc4c(cc3[C@@H](O[C@@H]3O[C@@H]5CO[C@@H](C)O[C@H]5[C@H](O)[C@H]3O)[C@H]3COC(=O)[C@H]23)OCO4)cc(OC)c1O` [etoposide]: the average tumor volume in data set [1] amounted to 1400 mm^3.

B1: tTF219: truncated Tissue Factor: residues 1-219 of TF plus an additional glycine at the N-terminus; SEQ ID NO:1 (protein)
chain: GSGTTNTVAAYNLTWKSTNFKTILEWEPKPVNQVYTVQISTKSGDWKSKCFYTTDTECDLTDEIVKDVKQTYLARVFSYPAGNVESTGSAGEPLYENSPEFTPYLETNLGQPTIQSFEQVGTKVNVTVEDERTLVRRNNTFLSLRDVFGKDLIYTLYYWKSSSSGKKTAKTNTNEFLIDVDKGENYCFSVQAVIPSRTVNRKSTDSPVECMGQEKGEFRE
Turning to B1, the “time in which plasma coagulated” value in [2] (10^−10 M tTF219, absence of Factor VIIa) was 60 s; in [2] (10^−10 M tTF219, presence of 13.5 nM Factor VIIa), 20 s. The figures for the coagulation time in [2] (20,000 molecules per cell) and in [2] (300,000 molecules of tTF per cell) were 140 s and 40 s, respectively. In addition, the “effect on coagulation time” value in [2] (A20 cells incubated without both specificities needed to bind tTF to the cells, FIG. 4A) is “no effect on coagulation time”. Also, in data set [2] (presence of 0.1 nM Factor VIIa), the “increase in coagulation-inducing potency of tTF” value is on record as 2-5 fold. In addition, in [2] (tTF bound to A20 cells by B21-2/10H10, mouse plasma, FIG. 4A), the “time until fibrin strands were visible after the addition of plasma” value turned out to be 36 s. Also, the “thrombosis of tumor vessels” value was “practically all vessels in all regions of the tumor were thrombosed” in data set [3] (24 hours after injection, large tumors, FIG. 9) and “virtually all vessels were thrombosed” in data set [4] (large tumors (>1000 mm^3), 24 hours after injection, FIG. 10). For the same molecule, the “effect on tumor vessels” value in data set [3] (small (<500 mm^3) tumors) and in data set [4] (small (<500 mm^3) tumors) was “largely unaffected” each time. The “gross appearance of tumors” value in data set [3] (starting within 30 minutes, progressively more marked up to 24 hours) was “blackened, bruised appearance”. The “tumor vessels thrombosed, on average” value in data set [5] came out at 62%. In [6] (fourteen days after the first injection, small (300 mm^3) tumors, treatment repeated 6 days later, FIG. 18), the “tumor size relative to controls receiving diluent alone” value is given as 75%. Also, the tumor response result in [6] (large (0.8 to 1.0 cm diameter) tumors, two intravenous injections 6 days apart, FIG. 12A) is reported as “grew significantly more slowly”. The “tumor size relative to tumors in mice receiving diluent alone” value in data set [6] (one week after the second treatment, small (300 mm^3) tumors at start) was 60%. Also, the “effect of the first treatment on tumor growth” value in [6] (small (300 mm^3) tumors, 16-20 μg intravenously, FIG. 12B) is recorded as “slight inhibitory effect on tumor growth”. In addition, the “effect of the second treatment on tumor growth” value in data set [6] (treatment repeated one week later, FIG. 12B) was “substantially greater, statistically significant (P<0.01), effect on tumor growth”. Moreover, the “tumor volume to which tumors regressed before regrowing” value in data set [7] (second treatment given when tumors were 900 mm^3) came to 550 mm^3. For the same molecule, the “effect of the first treatment” value in data set [7] (tumors small (250 mm^3)) is recorded as “little effect on growth rate”. Further, the “time for which tumors discontinued growth after treatment” value in data set [8] is “about 7 days”. Further, the “necrosis in tumor sections, in words” value in data set [9] is listed as “some necrosis”. Also, in [10], the “thrombi or abnormalities in paraffin sections of liver, kidney, lung, intestine, heart, brain, adrenals, pancreas, spleen” value was “neither thrombi, nor histological or morphological abnormalities were visible”. The “times less factor X-activating activity relative to native transmembrane TF” value in data set [11] is recorded as “approximately 10^5 times”.

The values are drawn from US7951356B1, “Tissue factor compositions and kits for coagulation and tumor treatment” (Board of Regents, The University of Texas System, priority 1997, dated 2011).
